B1: Hal5-10acl2: antibody directed against SLITRK6, produced by CHO cell ATCC PTA-13102; VH SEQ ID NO: 1, VL SEQ ID NO: 2 (antibody, V domains shown)
VH: QVQLVESGGGVVQPGRSLRLSCAASGFTFSSYGMHWVRQAPGKGLEWVAVIWYDGSNQYYADSVKGRFTISRDNSKNTLFLQMHSLRAEDTAVYYCARGLTSGRYGMDVWGQGTTVTVSS
VL: DIVMTQSPLSLPVTPGEPASISCRSSQSLLLSHGFNYLDWYLQKPGQSPQLLIYLGSSRASGVPDRFSGSGSGTDFTLKISRVEAEDVGLYYCMQPLQIPWTFGQGTKVEIKR
modifications: Synthetic heavy chain variable region of Hal5-10acl2; Synthetic light chain variable region of Hal5-10acl2

Columns and labels:
SLITRK6 mRNA = SLITRK6 mRNA expression by Q-PCR in BRAF-mutant melanoma cells under MAPK inhibitor treatment; assay type: cell-based; conditions: PLX4032 1 μM alone or with AZD6244 0.1 μM; A375, Lu1205, WM266-4, WM983B, WM35, WM115 cells; 72 h for WM35 and WM115
Method: FIG. 1. SLITRK6 mRNA expression is induced under MAPK inhibitor treatment in BRAF-mutant melanoma cells. A) A375, Lu1205, WM266-4 and WM983B cell lines were treated with a BRAF inhibitor (PLX4032) at 1 μM alone or in combination with a 0.1 μM MEK inhibitor (AZD6244). mRNA fold increase relative to the DMSO control is determined by Q-PCR. The results are presented as the mean±SD of the average of 3 independent experiments. *** p<0.001; T-test. B) BRAF-mutant melanoma cells lines WM35 and WM115 were treated with a BRAF inhibitor (PLX4032, 1 μM) alone or in combination with a MEK inhibitor (AZD6244, 0.1 μM) for 72 h and SLITRK6 mRNA was analyzed by RT-qPCR. Data shown are the means±standard deviation of 3 independent experiments. ** p<0.01; * p<0.05; t-test.

SLITRK6 [1] = assay: Staining of A375 cells for SLITRK6: antibody internalization; assay type: cell-based; conditions: si-Ctl or si-SLITRK6, PLX4032 1 μM alone or with AZD6244 0.1 μM for 48 h
Method: FIG. 6. […] A375 cells were transfected with siRNA control (si-Ctl) or targeting SLITRK6 (si-SLITRK6) before treatment with PLX4032 (1 μM) alone or in combination with AZD6244 (0.1 μM) for 48 h. Cells were then stained for SLITRK6 (green) and DNA was counterstained with DAPI (blue).

SLITRK6 [2] = assay: Staining of A375 cells for SLITRK6: antibody binding at the membrane; conditions: si-Ctl or si-SLITRK6, PLX4032 1 μM alone or with AZD6244 0.1 μM for 48 h
Method: FIG. 5. […] A375 cells were transfected with siRNA control (si-Ctl) or targeting SLITRK6 (si-SLITRK6) before treatment with PLX4032 (1 μM) alone or in combination with AZD6244 (0.1 μM) for 48 h. Cells were then stained for SLITRK6 (green) and DNA was counterstained with DAPI (blue).

[3] = listed as antibody against SLITRK6

Molecule | SLITRK6 mRNA expression (fold increase relative to the DMSO control) (SLITRK6 mRNA) | internalization of the antibody and its target (SLITRK6 [1]) | internalization of the antibody and its target (SLITRK6 [1]; [3]) | binding of the antibody to SLITRK6 at the cell membrane (SLITRK6 [2]) | binding of the antibody to SLITRK6 at the cell membrane (SLITRK6 [2]; [3])
CCCS(=O)(=O)Nc1ccc(F)c(C(=O)c2c[nH]c3ncc(-c4ccc(Cl)cc4)cc23)c1F [PLX4032] | induced | – | – | – | –
B1 | – | internalizes the tumor cells only after a treatment with a MAPK inhibitor | internalizes its target specifically only after MAPKi treatment | binds to melanoma cells only when the cells are treated with a MAMPK inhibitor | binds its target specifically at the membrane only after MAPK inhibitor treatment
